We go through 40 sequences from the nanobody polyreactivity screen of Harvey et al. (2022).

This series is described as follows: yeast display, Sf9 membrane polyspecificity reagent, FACS + sequencing; frameworks hold sequencing errors. Summed up: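 Galactose-induced (36–48 hours) yeast carrying a synthetic nanobody display library were exposed to 10% biotinylated, detergent-solubilized Sf9 membrane reagent at 4 °C for 1 hour. FACS followed streptavidin microbead enrichment, using low and high (top ~1%) gates for expression (anti-HA) and reagent binding (streptavidin). Colony PCR, MiSeq 2 × 250 sequencing and CDR-length filtering followed. Labels for polyreactivity reflect the gate of origin.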
With “QFQLVESGGGLVQAGGSLRLSCAASGRIFCSYAMGWYIQAPGKERELVAAITSGGSTNYADSVKARFTISRDNAKNTVYLLMNSLKQEDTAVYYCADVEYLRESDYWGQGTQVTVSS”, the “polyreactivity (PSR sort gate)” value is “low polyreactivity”. Regarding “QFQLVESGGGLVQAGGSLRLSCAASGRIFGGYAMGWYRQAPVKERELVAAIRDSGRTYYADSVKGRFTISRDNAKNTVYLQMNSLKQEDTAVYYFAADAHSTYAPFRWYDYCGQGTQVTVSS”, the “polyreactivity (PSR sort gate)” value is “low polyreactivity”. In the case of “QFQLVESGGGLVQAGGSLRLSCAASGRIFRYYDMGWYRQAPGKERELVAAISFSGGSTYYADSVKGRFTISRDNAKNTVYLQMNSLKQEDTAVYYCAAGWRALYLSTYDYWGQGTQVTVSS”, the “polyreactivity (PSR sort gate)” value is on record as “high polyreactivity”. With “QFQLVESGGGLVQAGGSLRLSCAASGRIFVYNDMVWYRQAPGKEREFVATITSSGGRTYYADSVKGRFTISRDNAKNTVYLQMNRLKPEDTAVYYCNKVGYSNLLGYDYWGQGTQVTVSS”, the “polyreactivity (PSR sort gate)” value is given as “high polyreactivity”. On to “QFQLVESGGGLVQAGGSLRLSCAASGRIFYKYVMGWYRQAPGKERELVAAINRSGGTTYYADSVKGRFTISRDNAKNTVYLQMNSLKPEDTAVYYCNATLPDYWPYYYYQGGDDYWGQGTQVTVSS”, for which the “polyreactivity (PSR sort gate)” value is reported as “low polyreactivity”. In the case of “QFQLVESGGGLVQAGGSLRLSCAASGRIFYSYAMGWYRQAPGKERELVAAISRSGTSTFYADSLKGRFTISRDNAKNTVYLQMNSLKPEDTAVYYCNAVISPYVIRSEYWGQGTQVTVSS”, the “polyreactivity (PSR sort gate)” value was “low polyreactivity”. For “QFQLVESGGGLVQAGGSLRLSCAASGRIFYYYAMGWDRQAPGKERELVASINSVGTTTYADSVKGRFTISRDNAKNTVYLQMNSLKPEDTAVYYCARDTGSIYYDGYEYDYWGQGTQVTVSS” the value was “low polyreactivity”. For the sequence “QFQLVESGGGLVQAGGSLRLSCAASGRTFVINAMGWYRQAPGKERELVAAISRGGSRTFYADSVKGLFTISRDTAKNTVYLQMNSLKPVDTAVYYCNAVAQSGRYDYWGQGTQVTVSS”, the “polyreactivity (PSR sort gate)” value is listed as “high polyreactivity”. Consider “QFQLVESGGGLVQAGGSLRLSCAASGRTLYGYAMGLYRQAPGKERELVAAISGSGTITYYADSVKGRFTISRDNAKNTVYLQMNSLKPEDTAVYYCNKRRAGQSRRVDSWGQGTQVTVSS”, for which the “polyreactivity (PSR sort gate)” value is on record as “high polyreactivity”. For “QFQLVESGGGLVQAGGSLRLSCAASGSIFISNAMGWYRQAPGKERDLVAAISWTSGSTYYADSVKGRFTISRDNAKNTVYLQMNSLKPVDTAFYYCAALGGAALDWGVVEVGYWGKGTQVTVSS”, the “polyreactivity (PSR sort gate)” value is reported as “low polyreactivity”.

Turning to “QFQLVESGGGLVQAGGSLRLSCAASGSIFSVYTMGWYRQAPGKERELVAAISTGGGSTYYADSVKGRFTISRDNAKNTVYLQMNSLKPEDTAVYYCATDYGWAPSYWYDSCGQGTQVTVSS”, the “polyreactivity (PSR sort gate)” value is given as “low polyreactivity”. The result for “QFQLVESGGGLVQAGGSLRLSCAASGSIFTYNVMGWYRQAPRKERELVAAISDGDGSTYADSVKGRFTISRDNAKNTVYLQMNSLKPEDTAVYYCAAVDGRYLGGFNSRDGDWGQGTQVTVSS” reads “low polyreactivity”; that for “QFQLVESGGGLVQAGGSLRLSCAASGSTFGYYAMGWYRQAPGKERELVAAISWSGDSTYYADSVKGRFSISRDNAKNTVYLQMNSLKPEDTAVYYCAAEVEYGYDYWGQGTQVTVSS”, “high polyreactivity”; that for “QFQLVESGGGLVQAGGSLRLSCAASGSTFKSYAMGWYRQAPGKEREFVAVITWSGGRTSYADSVKGRFTISRDNAKNTVYLQMNSLKPEDTAVYYCAAKAASRYRAFTYDYWGQGTQVTVSS”, “low polyreactivity”. Take “QFQLVESGGGLVQAGGSLRLSCAASGSTFPYYAMGWYRQAPGNERELVASIRKRGGGTYYADSVKGRFTISRDNAKNTVYFQMNILKPEDTAVYYCAVRVYQFRYTGYDYWGQGTQVTVSS”: the “polyreactivity (PSR sort gate)” value is recorded as “high polyreactivity”. With “QFQLVESGGGLVQAGGSLRLSCAASGSTFTPYDMGWYRQAPGKERELVAVITGSDGTYYADSVKGRFTISRDNAKNTVYLQMNSLKPEDTAVYYCATDWTFGRWSTLGVEMDYWGQGTQVTVSS”, the “polyreactivity (PSR sort gate)” value is “low polyreactivity”. For “QFQLVESGGGLVQAGGSLRLSCAASGSTFVWNAMGWYRPAPGKERELVAAITNDGRTNYADSVKGRFTISRDNAKNTVYLKMNSLKPEDTAVYYCNADGYNSYWWNYYWGQGTQVTVSS” the value was “low polyreactivity”; for “QFQLVESGGGLVQAGGSLRLSCAASGSTFYTNAMGWYRQAPGKERELVAAITSRTGSTYYADSVKGRFTISRDNAKNTVYLQMNSLKPEDTAVYYCAADIYDWGGHYEYWGQGTQVTVSS”, “high polyreactivity”. The result for “QFQLVESGGGLVQAGGSLRLSCAASGSTINPNTMVWSREAPGKERELVAVISSGGSTYYADSVKGRFTISRDNATNTVYLQMNSLKPEDSAVYYCAADRGTVSYLYCPRAVYYWGQGTQVTVSS” reads “low polyreactivity”; that for “QFQLVESGGGLVQAGGSLRLSCAASGSTLRLNVMGWYRQAPGKERELVARISRGCSTYYADSVKGRFTISRDNAKNTVYLQMNSLKPEDTAVYYCTAQSYPCVTPYSYWGQGTQVTVSS”, “low polyreactivity”. On to “QFQLVESGGGLVQAGGSLRLSCAATGSIFRGNAMGWYRQAPGKERELVAGINRAGSTKYADSVKGRFTISRDNAKNTVYLQMNSLKPEDTAVYYCAAVRYERGLWSDYWGQGTQVTVSS”, for which the “polyreactivity (PSR sort gate)” value was “high polyreactivity”. As to “QFQLVESGGGLVQAGGSLRLSCAAYGSTLYPYEMGWYRQAPGKERELVAAIDSGGSKNYADSVKGRFTISRDNAKNTVYLQMNSLKPEDTAVYYCAADGGVAWGYGYWGQGTQVTVSS”, the “polyreactivity (PSR sort gate)” value was “low polyreactivity”. Regarding “QFQLVESGGGLVQAGGSLRLSFAPSGSTFSYYAMGWYRPAPGKERELVAAISSRGGSTYYADSVKGRFTISRYNAKNTFYFQMNCLKAEDTDVYYSAAVLRGPDPTSTYYSWGQGTQVTVSS”, the “polyreactivity (PSR sort gate)” value is reported as “high polyreactivity”.

Consider “QFQLVESGGGLVQAGGSLRLSSAASGFTFIRYAMGWYRPAPGKERELVAAITVSGTRTYYADSVKGRFTISRDNAKNTVYLQMNSLKPEDTAVYYCNARDVYTGYGMGYWGQGTQVTVSS”, for which the “polyreactivity (PSR sort gate)” value is reported as “high polyreactivity”. For the sequence “QFQLVESGGGLVQAGGSVRLSCAASGSTFYLYAMGWYRQAPGKERELVAAITYGGGSTYYADSVKGRFTISRDNAKNTVYLQMNSLKPEDTAVYYCAARWLYWPRYNSLVYTHRDSWGQGTQVTVSS”, the “polyreactivity (PSR sort gate)” value is on record as “low polyreactivity”. Consider “QFQLVESGGGLVQAGSRLRLICAASGSTFKYYTMGWYRQAPGKERELVATIRGSGTTYADSVKGRFTISRDNAKNTVYLQMNSLKPEDTAVYYCARLPPADMDYWGQATQVTVSS”, for which the “polyreactivity (PSR sort gate)” value is “low polyreactivity”. Take “QFQLVESGGGLVQAGVSLRLICAASVSTFGYNAMGWYRQAPGKERELVPANNGRGGGTYYADSVKGRFTISRDNAKNTVYLQINSLKPEDTAVYYCAKLRRAGTGRGSHVYRQSDYWGQGTQVTVSS”: the “polyreactivity (PSR sort gate)” value is “high polyreactivity”. The result for “QFQLVESGGGLVQAGVSLRLSCAASGSTFYYGMVCSRHAPRKERELVAAISSRGGTTYYADSVKGRFTISRDNAKNTVYLQMNSLKPEDTAVYYCAAPVPYYVPSRNEGDYWGQGTQVTVSS” reads “low polyreactivity”; that for “QFQLVESGGGLVQARGSLRLSCAPSGSTFGYYTMGWYRQAPGKERELVAAISWSGGSTYYADSVKGRFTISRDNAKNTVYLQMNSLKPEDTAVYYCAALGYTYKYYSYYWGQGTQVTVSS”, “high polyreactivity”; that for “QFQLVESGGGLVQEGGSLRISCAASGSIFNEYAMGWYRQAPGKERELVAAISTSGDITYYADSVKGRFTISLDTAKNTVYLQMNSLKPEDTAVYYCAAKYSLLRQYNRLDYWGQGTQVTVSS”, “low polyreactivity”. As for “QFQLVESGGVLVQAGGSLRLSCAASGSTFNHYAMGWYRQARGKERELVADITKSGASTYADSVKGRFTISRDNAKNSVYLQMNSLKPEDTAVYYCAAGRRNYGTKGRGDYWGQGTQVTVSS”, the “polyreactivity (PSR sort gate)” value is recorded as “low polyreactivity”. As to “QFQLVESGRGLVQAGGSLRLSCAASVRIFLWYAMGWYRQAPGKERELVAVIRGRGDSTSYADSVKGRFTISRDNAKNTVYLQMNSLKPEDTAVYYCADVGRYDYNYWGQGTQVTVSS”, the “polyreactivity (PSR sort gate)” value is reported as “low polyreactivity”. For the sequence “QFQLVESGVGLVQAGGSLRLSCAASGRIFTNYAMGWYRQAPGKERELVASINYSGATRNYADSVKGRFTISRDNAKNTVYLQMNSLKPEDTAVYYCNADIYPDLYGSTNYDFNYWGQGTQVTVSS”, the “polyreactivity (PSR sort gate)” value is given as “low polyreactivity”.

Regarding “QFQLVESVGGLVQAGGSLRLSCAASGFIFGGYAMGWYIKAPGKERELVAAISSSGGSTYYADSVKGRFTISRDNAKNTVYLQMNSLKPEDTAVYYCAKVGWSRRYYYWGQGTQVTVSS”, the “polyreactivity (PSR sort gate)” value is given as “high polyreactivity”. For “QFQLVESVGGLVQAGGSLRLSCAATGRTSYVYLMVSYRAATGTEMELVAAITGSGGSTYYADSVKGRFTISRDNEKNNVYLQLNSLKPEDTAVYYCAKAYYSYEVYLGLSYVRRYVYWGQGTQVTVSS”, the “polyreactivity (PSR sort gate)” value is listed as “low polyreactivity”.

In the case of “QFQLVEYGGGLFQAGGSLRLSCDASGSIFPYNDLGWYRQAPGKERELVARITNGGSTNYADSVKGRFTISRDNAKNTFYLQMNSLKPEDTAGYYCNKDGTQEFAPDGHEYWGQGTQVTVSS”, the “polyreactivity (PSR sort gate)” value is listed as “low polyreactivity”. Regarding “QGHLVESGGGLVQAGGSLRLSCAASGFIFDYYAMGWYRQAPRKERELVAAITRDGGGTYYADSVTGRFTISRDNAKNTVYLQMNSLKPEDTAVYYCAARRAVRLYYWGQGTQVTVSS”, the “polyreactivity (PSR sort gate)” value is on record as “high polyreactivity”. On to “QGQHVESGGGLVQAGGRLRLSCAASGSILSGYEMGRSREAPGKERELVASITRGGSTYYADSVKGRFTISRDNANNSVYFQMNSLNPEDPAVYDCARYGSKNRRLGMDYWGQGTQVTVSS”, for which the “polyreactivity (PSR sort gate)” value is listed as “low polyreactivity”. On to “QGQHVESGGGLVQAGGSLRLSCAASGRIFVPYAMGWYRQAPGKERELVAAITWRGGSPYYADSVKGRFTLSRDNAKNTVYLQMNSLKPVDTAVYYCNAAEASPWFWFSHLQVGMDYWGQGTQVTVSW”, for which the “polyreactivity (PSR sort gate)” value is given as “low polyreactivity”.

Consider “QGQLEESGGGLVQAGGSLRLSCAASGSIFGENAMGWYRQAPGKDRELVAAISSAGSTKYADSVKGRFTISRDNAKNSVYFQMNSLKPEDTAVYYCAAGYYRTSYPYSYYYWGQGTQVTVSS”, for which the “polyreactivity (PSR sort gate)” value was “low polyreactivity”.
